Measured values from the RNAGym collection of RNA variant scans (doi:10.1073/pnas.2313332121).
This sample holds only a part of the variants without activity.

B1: TPR 5TU (parent)
chain: GGAUCUUCUCGAUCUAACAAAAAAGACAAAUCUGCCACAAAGCUUGAGAGCAUCUUCGGAUGCAGAGGCGGCAGCCUUCGGUGGCGCGAUAGCGCCAACGUUCUCAACUAUGACACGCAAAACGCGUGCUCCGUUGAAUGGAGUUUAUCAUG

Variants of: B1
Test: polymerase ribozyme fitness, log enrichment relative to wild type (log ratio); higher = more active; in vitro selection for triplet polymerase activity
How it was run: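 Fitness compares each genotype's enrichment to that of the wild type on a logarithmic scale, averaging replicates with inverse-variance weights. The logarithm is base 2. Enrichment came from Illumina sequencing of input and output libraries after one triplicate round of in vitro selection, which included frozen incubation at −7 °C, of PCR-built, transcribed mutant libraries of each subunit of a heterodimeric triplet polymerase ribozyme. Only genotypes with ≥10 input reads and ≥1 read per output were kept.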

| Variant | polymerase ribozyme fitness (log ratio) |
| --- | --- |
| A89U A150U | 1.51 |
| A22C C38U G81U C87G U144A | ≤ -4.2 |
| C14G U82A G84A C87U C118G | -3.78 |
| A97G C116U G133U | ≤ -4.2 |
| G92U C95U A137U | -4.11 |
| C75U A91C A119G G136U | ≤ -4.2 |
| A12G G58U C116U A150G | -1.58 |
| A28C C51A C76G G83C A110U U127G | ≤ -4.2 |
| A39C C118U A120U | -1.81 |
| U55G U82A U148C | -2.51 |
| A39G C57A C87U | -1.73 |
| C18U A26U C75G G83A A122U G143A | -3.81 |
| U53A C76G | ≤ -4.2 |
| U82G C96G C118U G141A A147U | -1.93 |
| A21U A52G C87U C114U U144G | -3.22 |
| A52G C103U | -1.06 |
| A52G C87U C93U C131A G136A G143C U145G U146G | ≤ -4.2 |
| C5G A17G A20U C57U A66U G86C A107G C108A | ≤ -4.2 |
| G46A U53A G59A A66C U90C A91U C108G G133C | ≤ -4.2 |
| U15C U53A A98G C105G U146G | ≤ -4.2 |
| A39G G50C C51G G58A C93G U139G | ≤ -4.2 |
| C27G C87G G133C | ≤ -4.2 |
| A41C G94A U104G A113C C116G | ≤ -4.2 |
| C43U G59C U77A U111C | ≤ -4.2 |

| Variant | polymerase ribozyme fitness (log ratio) |
| --- | --- |
| C18U C131A | -2.6 |
| C14A A49C C85A U90G G94U A107G G141U | ≤ -4.2 |
| C51U G88C | -4.09 |
| A16G G83U G92A C96U | ≤ -4.2 |
| A16U A29U U45G U61G C93A | ≤ -4.2 |
| G84A C95A | -0.531 |
| U6C A47C G81C C87G C96U | ≤ -4.2 |
| A22C U33G G50C U78A C87A G126A U135A U144G | -3.83 |
| G88C A115U G117U C131G U135G | ≤ -4.2 |
| U7A U44A | ≤ -4.2 |
| C38U U55G G83U U135C | -1.98 |
| C103G U135A | -2.27 |
| A49G C93G U102G A106G | ≤ -4.2 |
| G59A A66G | -3.24 |
| C76A G83A | -2.85 |
| A3G C18A C93G C123U C131U | -1.32 |
| C5G C132U U146G | -3.69 |
| G58C U82G C99G | -1.45 |
| C79A C96G | ≤ -4.2 |
| G65A G71U C85A | ≤ -4.2 |
| C27U G62U A120C A122U | -2.46 |
| A19U A40C G81C C96G | -1.25 |
| A52C G92U C103G A106C | ≤ -4.2 |
| G84A C85U G143A | -1.63 |

| Variant | polymerase ribozyme fitness (log ratio) |
| --- | --- |
| A12C G34U G50U G88C A98U C125A | -4.18 |
| U9C C10U A16U A19C C85G G94C C105U A106U | ≤ -4.2 |
| A21G G42U C54A C72U C76U C79U G84U | ≤ -4.2 |
| U61C G94A G141A C149A | ≤ -4.2 |
| C14G A19C C75U U82C C93U A97U C105G | ≤ -4.2 |
| A24U U55A | -0.466 |
| U45A G84U C108G | ≤ -4.2 |
| U82C G84A A98U A115U G141A | -2.58 |
| C18G G59A C75U C93A A107C C118A | ≤ -4.2 |
| C38U C93U A121G G124A U135G | ≤ -4.2 |
| A26U | -1.21 |
| C43A C96A U101G A150U | -4.16 |
| A23U | -3.23 |
| A20C C93U | -1.41 |
| G83U G94U C116A C132G G140U | -3.11 |
| C5A G81U C85G C99U U134A | -4.04 |
| A12G U55A | 0.668 |
| U45A G92A U127C G128A U130G | -4.06 |
| A3U C76G A89U C93U G100A A137C G143U U144A | ≤ -4.2 |
| A12G A19U A41U G50C C85U G133A U148C | ≤ -4.2 |
| A41C A47C C96U C103U A115G | -3.11 |
| U44G A52C U77C G83A C99A C118A U145G | ≤ -4.2 |
| A17C G133A | -3.15 |
| U56A U134A G143C | -4.04 |

| Variant | polymerase ribozyme fitness (log ratio) |
| --- | --- |
| A28G A52U G84A C103A | ≤ -4.2 |
| C38U C93G | -2.92 |
| C14U G74A G94A A122G | ≤ -4.2 |
| C54G G80C G81A C85U C129A U135C | ≤ -4.2 |
| C99U C149U | -1.17 |
| C5A A20U A21U A107G U145C C149U | ≤ -4.2 |
| C8A C27U U44G A49C C72G C79A G92A G143U | ≤ -4.2 |
| C5G C69G C93U | -4.12 |
| A19G A91U | ≤ -4.2 |
| G86A U90A | -3.67 |
| A17U C95U C99A A107G G133U | ≤ -4.2 |
| C14G A97U A98G | -2.74 |
| A20U A47C | -0.824 |
| G70U U139G | -2.93 |
| A12U A16G A30U C79G C95A U144A | ≤ -4.2 |
| C35U C85U | -0.375 |
| G58A U146G | 0.231 |
| A17U A47C C51G U61A G83A | ≤ -4.2 |
| A20U A28U C96G | ≤ -4.2 |
| A17G C35A G67C C96U C114U C116U | ≤ -4.2 |
| C35U C129U | -0.479 |
| A19U A28C A40C A41C U44G C85A A113C | ≤ -4.2 |
| A28C G67A G100C A119G C131U U145G | ≤ -4.2 |
| C69A U104G | -3.09 |

| Variant | polymerase ribozyme fitness (log ratio) |
| --- | --- |
| A41C U127C | -2.04 |
| A47U G62C G84U | -3.86 |
| G25C G88U G124A G128U U135C | ≤ -4.2 |
| G50A G59A U101G | -0.0298 |
| U15G G94C C96U U111A G152A | ≤ -4.2 |
| C35U C76U C99U | -1.5 |
| U56A C93U G141A | -3.72 |
| A3U A20C A26U C57G C108U | ≤ -4.2 |
| U13G A29U C93U C129G | ≤ -4.2 |
| A37C U55G G94A | 0.0696 |
| A40C G50U U148A | ≤ -4.2 |
| G46A C54G G86U G117A A119G A137G G141C G143U | ≤ -4.2 |
| G11U A40C G70C C103G | ≤ -4.2 |
| C87U U151G | -3.96 |
| U6C U31C C57A C96G | -1.1 |
| A89C G94C | -1.57 |
| C75U C95G C96G | -3.09 |
| A23C U44A U45A G74A A91G | ≤ -4.2 |
| U33A G86A A142G | ≤ -4.2 |
| A16U G50A C76U | -3.4 |
| A73U C79U G88A A119G G124U C149A | ≤ -4.2 |
| A73U C96G | -1.8 |
| G83U C103U | 0.2 |
| C57G G58A G86U | -1.7 |

| Variant | polymerase ribozyme fitness (log ratio) |
| --- | --- |
| G48U G59A C93U | -1.39 |
| A20G A107G C116G A122G G124A G128C | ≤ -4.2 |
| C14G A26U A30U C75A C93U G141A U148G U151G | ≤ -4.2 |
| G80C G84C G133A G141C | ≤ -4.2 |
| A22U G34A G62C G68C C96A | ≤ -4.2 |
| U82G G86A | -0.594 |
| C18U C51U C96A G126C C132U | -2.04 |
| U56A G58A G88C | -3.84 |
| A39G G80C C93U C118U | -3.96 |
| G59A G67A C108U | ≤ -4.2 |
| U56G G84A | -3.48 |
| A22U C38U C57U G94C G126U | -0.0445 |
| A29C C38G G65U U77A G81C A137G | ≤ -4.2 |
| A29U C32A A41U G71C C85U C87U A98C | ≤ -4.2 |
| A28U U55A C72U U90C A115G | ≤ -4.2 |
| C10U C69U A147C U148G C149G | ≤ -4.2 |
| C14G A39U U55G C95U | ≤ -4.2 |
| A20U A52C | -2.87 |
| A52U G136A | -0.592 |
| U56A G84A U90C C125A | ≤ -4.2 |
| G83A A119C A137G G143A | -2.54 |
| A19G G84C A115U A121G | -3.97 |
| A12C U13G C18G A21G U101A A110U A120U G136C G140U G152U | ≤ -4.2 |
| C51U G141C | -0.423 |

| Variant | polymerase ribozyme fitness (log ratio) |
| --- | --- |
| C79A C93A C95U | ≤ -4.2 |
| A39C A47C G62A C85U A98U U134A | ≤ -4.2 |
| A16G A17C U31A U55G C57G A115C U135A | -3.86 |
| A17U C95U | -0.895 |
| G25A C27G U44A G86C A97U A110C | ≤ -4.2 |
| C51U G58U U77G C96A | -4.18 |
| U13C C14G A66G A73G C95U A110G | ≤ -4.2 |
| G83C C95G U148G | ≤ -4.2 |
| A64G G68A | ≤ -4.2 |
| A40C C131G | -3.13 |
| C69G A73C U77C G84A C118U C131A U139G | ≤ -4.2 |
| G67C G84A U139A G140U | ≤ -4.2 |
| C54U U130G | -3.73 |
| G50U U104G G143U | -3.47 |
| A60G G71A G141U | ≤ -4.2 |
| A49C A52C C96A U102G U127C U148A | ≤ -4.2 |
| G34C U78C A91G U146A | ≤ -4.2 |
| G81A A89U G112A G133U C149U | ≤ -4.2 |
| C14A G59A G84A A106G C125G U148C C149U | ≤ -4.2 |
| C54U G92C | -1.07 |
| G48A G59A G88C A106G U148C | ≤ -4.2 |
| C8A A16G A29U A47U G71U C93A A106G G133U C149U | ≤ -4.2 |
| C5A A26U A52G G86A G88C A113U G141A | ≤ -4.2 |
